Legend:
[1] = target: T1, RIP1 (UniProt Q13546 1-671, limits assumed); assay: co-immunoprecipitation with MAVS antibody, overexpression in HEK293 cells (FIG. 12A)
T1 construct: also called RIPI
T1 sequence (looked up): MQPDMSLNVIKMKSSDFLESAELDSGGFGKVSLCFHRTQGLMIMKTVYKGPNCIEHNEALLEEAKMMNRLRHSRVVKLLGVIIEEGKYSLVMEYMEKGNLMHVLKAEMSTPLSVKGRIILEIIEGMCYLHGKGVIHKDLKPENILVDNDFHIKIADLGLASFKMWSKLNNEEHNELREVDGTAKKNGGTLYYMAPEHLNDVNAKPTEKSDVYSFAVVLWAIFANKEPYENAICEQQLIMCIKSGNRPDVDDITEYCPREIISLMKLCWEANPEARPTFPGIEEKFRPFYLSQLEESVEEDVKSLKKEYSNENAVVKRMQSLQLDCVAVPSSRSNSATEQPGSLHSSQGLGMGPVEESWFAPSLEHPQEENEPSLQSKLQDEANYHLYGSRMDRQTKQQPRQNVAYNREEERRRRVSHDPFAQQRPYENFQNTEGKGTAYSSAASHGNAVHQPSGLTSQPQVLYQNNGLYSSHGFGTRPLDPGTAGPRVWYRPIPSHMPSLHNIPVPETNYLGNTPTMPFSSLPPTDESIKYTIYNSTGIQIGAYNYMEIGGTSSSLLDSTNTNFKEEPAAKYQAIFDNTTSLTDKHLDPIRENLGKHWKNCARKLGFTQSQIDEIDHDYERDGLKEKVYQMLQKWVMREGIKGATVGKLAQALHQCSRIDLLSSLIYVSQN

[2] = target: T2, FADD (UniProt Q13158 1-208, limits assumed); assay: as above
T2 sequence (looked up): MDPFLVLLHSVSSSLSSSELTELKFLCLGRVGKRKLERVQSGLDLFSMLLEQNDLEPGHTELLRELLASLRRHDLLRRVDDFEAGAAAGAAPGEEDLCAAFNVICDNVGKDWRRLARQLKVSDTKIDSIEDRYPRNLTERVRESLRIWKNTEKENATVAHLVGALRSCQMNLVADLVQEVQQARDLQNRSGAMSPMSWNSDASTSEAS

B1: HA-MAVS (N-terminal HA-tagged Mitochondrial Anti-Viral Signaling protein) (other)
chain: MPFAEDKTYKYICRNFSNFCNVDVVEILPYLPCLTARDQDRLRATCTLSGNRDTLWHLFNTLQRRPGWVEYFIAALRGCELVDLADEVASVYESYQPRTSDRPPDPLEPPSLPAERPGPPTPAAAHSIPYNSCREKEPSYPMPVQETQAPESPGENSEQALQTLSPRAIPRNPDGGPLESSSDLAALSPLTSSGHQEKDTELGSTHTAGATSSLTPSRGPVSPSVSFQPLARSTPRASRLPGPTGSVVSTGTSFSSSSPGLASAGAAEGKQGAESDQAEPIICSSGAEAPANSLPSKVPTTLMPVNTVALKVPANPASVSTVPSKLPTSSKPPGAVPSNALTNPAPSKLPINSTRAGMVPSKVPTSMVLTKVSASTVPTDGSSRNEETPAAPTPAGATGGSSAWLDSSFENRGLGSELSKPGVLASQVDSPFSGCFEDLAISASTSLGMGPCHGPEENEYKSEGTFGIHVAENPSIQLLEGNPGPPADPDGGPRPQADRKFQEREVPCHRPSPGALWLQVAVTGVLVVTLLVVLYRRRLH
notes: also called KIAA1271; pEF-HA-MAVS; not shown: N-terminal HA tag
B1: no binding [1]; no binding [2].

— patent publication US20080003614A1 (University of Texas, published 2008)
